Reference: PMC6186785, “Discovery of Bacterial Deaminases That Convert 5-Fluoroisocytosine Into 5-Fluorouracil” (Frontiers in Microbiology, 2018)

B1: URA3 deaminase (uncultured Pseudomonas sp.) (protein)
chain: MAKTLLVKNAELLVTMDGQRREIRQGGMFIEDNRIVQVGPAAELPQTADEVLDLKGKVVIPGLVNTHHHMYQSLTRVVPAAQDGELFNWLTNLYPIWARLTPEMIQVSTQTAMAELILSGCTTSSDHLYIYPNGCKLDDSIHAAGEIGMRFHAARGSMSVGRSQGGLPPDSVVEKEADILKESQRLIEDYHDAAHGSMLRVVVAPCSPFSVSRDLMREAAVLARNYGVSLHTHLAENVNDIAYSREKFGMTPAEYAEDLGWVGHDVWHAHCVQLDEHGIELFARTGTGVAHCPCSNMRLASGIAPVRRMRDAGVPVGLGVDGSASNDGASMIGEVRQALLLQRVGFGPDAMTAREALEIATLGGAKVLNRDDIGALAPGMVADFVAFDLNHIAYAGALHDPLAALVFCTPTHVSTSVINGKVVVRDGQLVTVDLPRVLERHNQLARQLVMGE
notes: full-length ORF, C-terminal 6xHis (pET21b NdeI/XhoI), E. coli BL21(DE3); primers encode N-terminus MAKTLL and C-terminus VMGE before LE-tag
B2: Vcz deaminase (uncultured Hafnia sp.; H2D) (protein)
chain: MDKRTLLFKNAELLVTMDDERREIRGGCLLVEGNRIVAVGGDELCAAPADEEIDLRGHIVIPGLINTHHHMFQSLTRVIPDAQDGELFDWLNNLYPIWAGLTPEMIRISTQTAMAELMLSGCTTSSDHLYVYPNGCRLDDSIDGAREIGMRFHACRGSMSVGRSKGGLPPDELVENEQAILEDSLRLIHSYHDAQRYSMLRIALAPCSPFSVSRELMVKTAQMAREQGVSLHTHLAENDSDVSYSQTHFGMTPAQYAEDLGWVGSDVWHAHCVKLDRAGISLFARTGTGVAHCPCSNMRLASGIAPIRAMLDEGVSVGLGVDGSASNDAGNMIAETRQAMLLQRVGFGPDAMNARQALEIATRGGAKVLNRDDIGYLATGMAADFVAFDLNTLNLAGAKHDPLAALVFCTPGNVAFSVINGQVVIREGVLQTIDLPSVVQQHNRLACLLVNRHRL
notes: full-length ORF, C-terminal 6xHis (pET28a NcoI/XhoI), E. coli BL21(DE3); primers encode N-terminus MDKRTL and C-terminus NRHRL before LE-tag

Columns and labels:
Test in all cases: purified protein
purified protein [1] = substrate: Nc1nccc(O)n1; conditions: 50 mM Tris-HCl pH 8.0, 21 °C, substrate range 5–700 μM
purified protein [2] = substrate: Nc1ncc(F)c(=O)[nH]1; assay type: biochemical, uncultured Pseudomonas sp.; conditions: 50 mM Tris-HCl pH 8.0, 21 °C, sentence prints 'isocytosine', evident slip for 5-fluoroisocytosine (second URA3 set, after Vcz 5-fluoroisocytosine)
purified protein [3] = substrate: Nc1ncc(F)c(=O)[nH]1; assay type: biochemical, uncultured Hafnia sp.; conditions: 50 mM Tris-HCl pH 8.0, 21 °C

Row | Protein | Km (purified protein [1]) [µM] | kcat (purified protein [1]) [s⁻¹] | Km (purified protein [2]) [µM] | kcat (purified protein [2]) [s⁻¹] | Km (purified protein [3]) [µM] | kcat (purified protein [3]) [s⁻¹]
1 | B1 | 1085 ± 120 | 2.00 ± 0.15 | 1330 ± 305 | 0.02 ± 0.003 | – | –
2 | B2 | 1860 ± 45 | 1.64 ± 0.06 | – | – | 1270 ± 128 | 0.1 ± 0.007
